What was measured:
human PD-L1-Fc protein [1] = molecular target: T1, human PD-L1-Fc protein (human, UniProt Q9NZQ7 19-239); test: ELISA, Fab on coated human PD-L1-Fc; ratio from extrapolating an OD of 0.3 at pH 6 versus pH 7.4
T1 construct: Bought from R&D Systems; also called immobilised PD-L1-Fc; not shown: Fc part of the bought fusion protein, not described

human PD-L1-Fc protein [2] = molecular target: T1, human PD-L1-Fc protein; test: ELISA, Fab on coated human PD-L1-Fc, pH 7.4
biotinylated human PD-L1 [3] = molecular target: T2, biotinylated human PD-L1 (human, UniProt Q9NZQ7 19-239, limits assumed, biotinylated (sites not given)); test: competition ELISA, Fab with biotinylated PD-L1 on coated PD-1-Fc, pH 6
T2 construct: Bought from R&D Systems; also called biotinylated-PD-L1; human PD-L1 biotin

biotinylated human PD-L1 [4] = molecular target: T2, biotinylated human PD-L1; test: as above; remark: listed apart in the source
biotinylated human PD-L1 [5] = molecular target: T2, biotinylated human PD-L1; test: competition ELISA, Fab with biotinylated PD-L1 on coated PD-1-Fc; ratio of IC50 values
biotinylated human PD-L1 [6] = molecular target: T2, biotinylated human PD-L1; test: competition ELISA, Fab with biotinylated PD-L1 on coated PD-1-Fc, pH 7.4
human PD-L1 on cells [7] = molecular target: T3, human PD-L1 on cells (human, UniProt Q9NZQ7 19-290); test: flow cytometry on MDA-MB-231 cells, Krebs buffer, pH 6.5
T3 construct: Endogenous on MDA-MB-231 cells or transfected into HEK293FF cells (Sino Biological plasmid); the assay field says which; also called native PD-L1 on MDA-MB-231 cells; PD-L1 expressing MDA-MB-231 cells
Experimental: (§1) Anti-PD-L1 affinity matured Fabs were tested for their ability to bind to native PD-L1 in a cell line, (MDA-MB-231 cells) in a buffer resembling the tumor microenvironment (Krebs-lactate).

human PD-L1 on cells [8] = molecular target: T3, human PD-L1 on cells; test: flow cytometry on MDA-MB-231 cells, Krebs buffer; ratio of EC50 values
Experimental: as §1

human PD-L1-Fc protein [9] = molecular target: T1, human PD-L1-Fc protein; test: BIAcore off rate, unpurified periplasmic extract Fab on PD-L1, pH 7.4
biotinylated human PD-L1 [10] = molecular target: T2, biotinylated human PD-L1; test: competition ELISA, Fab with biotinylated PD-L1 on coated PD-1-Fc, pH 6.5
human PD-L1 on cells [11] = molecular target: T3, human PD-L1 on cells; test: flow cytometry on MDA-MB-231 cells, Krebs buffer, pH 6
Experimental: as §1

human PD-L1 on cells [12] = molecular target: T3, human PD-L1 on cells; test: flow cytometry on MDA-MB-231 cells, Krebs-lactate buffer, pH 6 versus pH 7.4
Experimental: In order to mimic an acidic tumor environment milieu with tumor cells expressing PD-L1 (The metabolism of tumors in the body, Warburg et al. J Gen Physiol. 1927; 8:519-30) the following buffers were utilised: Krebs ringer bicarbonate buffer (KRB, Amsbio catalog number KRB-1000) with 1 mM lactic acid (Sigma catalog number 252476-50DG) for pH 7.4; KRB plus 15 mM lactic acid for pH 6.5 and KRB plus 20 mM lactic acid for pH 6.0). 3 fold dilutions (100 nM to 0.0005 nM; 0) of the Fabs or IgG were prepared in the respective pH buffers and incubated with 0.60E05 MDA-MB-231 cells for 60 minutes at 4° C. The cells were then washed 3× with the respective pH buffers, at 300 g for 3 min. The cells were then incubated with 50 μl of anti-human IgG (Fab specific)-FITC (Sigma, catalog number F5512-1ML) at 1:100 dilution in the respective pH buffers. Binding of the IgG or Fab to PD-L1 expressing cells was measured by FACS (Attune Nxt) and a total of 10.000 cells were acquired per sample.
as §1

human PD-L1-Fc protein [13] = molecular target: T1, human PD-L1-Fc protein; test: BIAcore off rate, unpurified periplasmic extract Fab on PD-L1
human PD-L1 on cells [14] = molecular target: T3, human PD-L1 on cells; test: flow cytometry on MDA-MB-231 cells, Krebs buffer, pH 7.4
Experimental: as §1

biotinylated human PD-L1 [15] = molecular target: T2, biotinylated human PD-L1; test: competition ELISA, Fab with biotinylated PD-L1 on coated PD-1-Fc
human PD-L1-Fc protein [16] = molecular target: T1, human PD-L1-Fc protein; test: BIAcore off rate, unpurified periplasmic extract Fab on PD-L1, pH 6
human PD-L1-Fc protein [17] = molecular target: T1, human PD-L1-Fc protein; test: ELISA, purified Fab on coated human PD-L1-Fc, pH 6 (FIG. 4)
human PD-L1-Fc protein [18] = molecular target: T1, human PD-L1-Fc protein; test: ELISA, Fab on coated human PD-L1-Fc, pH 6

T1 sequence (Q9NZQ7 19-239 limits assumed): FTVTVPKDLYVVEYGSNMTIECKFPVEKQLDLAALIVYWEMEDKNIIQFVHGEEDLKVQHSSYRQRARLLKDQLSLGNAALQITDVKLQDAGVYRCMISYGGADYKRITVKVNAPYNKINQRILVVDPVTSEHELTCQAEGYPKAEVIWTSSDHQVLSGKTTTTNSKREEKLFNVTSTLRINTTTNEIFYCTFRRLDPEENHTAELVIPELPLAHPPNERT
T2 sequence (Q9NZQ7 19-239 limits assumed): as above
T3 sequence (Q9NZQ7 19-290 limits assumed): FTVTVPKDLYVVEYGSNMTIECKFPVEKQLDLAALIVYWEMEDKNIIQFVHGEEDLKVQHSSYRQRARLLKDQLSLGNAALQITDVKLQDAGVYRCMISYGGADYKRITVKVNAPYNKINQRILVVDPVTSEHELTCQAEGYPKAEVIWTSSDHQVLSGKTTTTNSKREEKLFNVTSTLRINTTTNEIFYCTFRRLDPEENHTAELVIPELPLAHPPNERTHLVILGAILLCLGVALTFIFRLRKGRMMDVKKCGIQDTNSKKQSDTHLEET

Ratio pH 6:7.4 (human PD-L1-Fc protein [1]): 11
EC50 (human PD-L1-Fc protein [2]): > 10 nM
IC50 (biotinylated human PD-L1 [3]): 12.2 nM
fold less (IC50) than the control Fab 2.7A04OPT at pH 6 (biotinylated human PD-L1 [4]): ~3 fold
Ratio pH 6:7.4 (biotinylated human PD-L1 [5]): 6.66
IC50 (biotinylated human PD-L1 [6]): 81.2 nM
EC50 (human PD-L1 on cells [7]): 6.62 nM
Ratio pH 6:7.4 (human PD-L1 on cells [8]): > 46.3
koff (human PD-L1-Fc protein [9]): 0.015 s⁻¹
IC50 (biotinylated human PD-L1 [10]): 29.4 nM
EC50 (human PD-L1 on cells [11]): 2.16 nM
pH binding preference (fold) (human PD-L1 on cells [12]): > 100 fold
Ratio pH 6 vs 7.4 (human PD-L1-Fc protein [13]): 9
EC50 (human PD-L1 on cells [14]): > 100 nM
fold less inhibitory activity at pH 6.5 than at pH 6 (biotinylated human PD-L1 [15]): ~3 fold
koff (human PD-L1-Fc protein [16]): 0.00131 s⁻¹
concentration at saturation of binding (human PD-L1-Fc protein [17]): 4 nM
EC50 (human PD-L1-Fc protein [18]): 0.54 nM
B1: Fab 8A04 (Fab, V domains shown)
VH: QVQLVQSGGGVVQPGRSLRLSCAASGFTFSSYGMYWVRQAPGKGLEWVAVISYDGSNKYYADSVKGRFTISRDNSKNTLNLQMNSLRAEDTAVYYCAKGALTHWGVVIGDGMDVWGQGTTVTVSS
VL: NFMLTQPHSVSESPGKTVTISCMRTGTGNKGHYTRWYQQRPGSSPTTVIYEDDQRPSGVPDRFSGSIDSSSNSASLTISGLKTEDEADYYCQSFDSTNPWVFGGGTKLTVL
notes: Purified Fab prepared from IgG with the Pierce kit; also called 8A04 Fab
